Test results: patent publication US6825005B2, “Methods and reagents to regulate apoptosis” (President and Fellows of Harvard College, priority 2000, dated 2004)

Columns and labels:
[1] = test system: cytochrome c release from mitochondria; experiment: Cytochrome c release assay, immunoblot of cytoplasmic extracts of U2OS cells treated with TNF; format: cell-based, human; conditions: inducible U2OS lines, TNF treatment
Experimental: For cytochrome c release assays, U2OS cells were induced with muristerone for 24 hours and treated with 10 ng/ml TNF plus 30 μg/ml cycloheximide for 4.5 hours. Cells were then trypsinized, resuspended in sucrose buffer, homogenized in a Teflon tissue homogenizer, and centrifuged at 10,000×g for 10 minutes as described above. Postmitochondrial supernatant (100 μg of protein) was then analyzed by Western blot analysis for the presence of cytoplasmic cytochrome c. Cytochrome c levels were quantitated by using NIH IMAGE software.

[2] = biological target: T1, mtHsp70 (Homo sapiens, UniProt P38646); experiment: Coimmunoprecipitation-immunoblot with mtHsp70; format: binding; conditions: endogenous proteins, U2OS cells
T1 construct: immunoprecipitate endogenous hTid-1L and hTid-1S in complex with mtHsp70 from human U2OS cells; endogenous in cells
T1 sequence (P38646 47-679): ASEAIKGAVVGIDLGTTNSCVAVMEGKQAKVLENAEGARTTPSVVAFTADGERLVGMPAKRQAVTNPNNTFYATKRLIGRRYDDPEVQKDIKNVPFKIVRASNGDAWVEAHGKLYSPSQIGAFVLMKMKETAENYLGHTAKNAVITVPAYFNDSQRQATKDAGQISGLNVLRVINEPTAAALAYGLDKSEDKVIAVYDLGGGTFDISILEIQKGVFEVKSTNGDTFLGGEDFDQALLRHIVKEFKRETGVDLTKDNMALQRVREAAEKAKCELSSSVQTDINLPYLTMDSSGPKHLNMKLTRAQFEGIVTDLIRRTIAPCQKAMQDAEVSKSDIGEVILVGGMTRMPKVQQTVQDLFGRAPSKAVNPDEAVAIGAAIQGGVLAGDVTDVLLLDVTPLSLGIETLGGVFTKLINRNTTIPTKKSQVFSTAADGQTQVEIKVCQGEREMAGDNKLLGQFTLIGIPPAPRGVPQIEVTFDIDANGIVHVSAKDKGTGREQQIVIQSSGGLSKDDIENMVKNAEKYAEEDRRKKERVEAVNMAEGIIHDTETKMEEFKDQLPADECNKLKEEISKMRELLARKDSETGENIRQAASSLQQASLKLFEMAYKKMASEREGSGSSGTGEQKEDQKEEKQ
Experimental: Immunoprecipitation. One 10-cm Plate of SAOS-2 Cells was Trypsinized, Washed in PBS, and lysed in 1% NP40/150 mM NaCl/50 mM Tris HCl, pH 8.0/1 μg/ml each aprotinin and leupeptin/0.01% PMSF on ice. The sample was split into four fractions and incubated for 1 hour with either anti-hTid-1, anti-mtHsp70, or anti-Hsc70 mAbs. Immune complexes were collected on protein G agarose beads (GIBCO) and washed three times in 0.1% NP40 lysis buffer. Samples were then separated by SDS/PAGE, transferred to poly(vinylidene difluoride) membrane, and probed with either anti-mtHsp70, anti-Hsc70, or anti-hTid-1 mAbs. Proteins were visualized by ECL (Amersham Pharmacia) by using x-ray film.

[3] = test system: caspase 3; experiment: Pro-caspase 3 cleavage and activation, immunoblot and fluorogenic activity assay, U2OS cells treated with TNF; format: cell-based, human; conditions: inducible U2OS lines, TNF treatment
Experimental: Caspase Activation and Cytochrome c Release Assays. U2OS Cells were Induced for 24 hours with 1 μM muristerone and treated for the indicated time with 10 ng/ml TNF plus 30 μg/ml cycloheximide. Cells were trypsinized, washed in PBS, and resuspended in lysis buffer (1% NP40/50 mM Tris HCl/150 mM NaCl, pH 8.0/1 μg/ml each aprotinin and leupeptin/0.01% PMSF), and protein concentration was analyzed by using the Bradford method (Bio-Rad). Sixty micrograms of total cell lysate was then analyzed by Western blot analysis using mAb specific for pro-caspase 3 and pro-caspase 8.
Caspase activity was measured by using fluorescent caspase 8 and caspase 3 activity assays (CLONTECH). Inducible U20S cells were induced with muristerone for 24 hours and treated with 10 ng/ml TNF plus 30 μg/ml cycloheximide for 4.5 hours. Cells were trypsinized, combined with apoptotic cells in the tissue-culture media, counted, and assayed for caspase activity by the manufacturer's protocol on a fluorescent plate reader (excitiation 380 mn, emission 530 nm). For caspase 8 activity, 1×10^6 cells of each line were used, and for caspase 3 activity, 3.5×10^5 cells of each line were used.

[4] = test system: U2OS cells; experiment: Apoptosis assay, Hoechst-stained apoptotic nuclei counted in inducible U2OS cells; format: cell-based, human; conditions: cell line expressing the protein, treated with MMC or TNF-alpha
Experimental: Cell Lines and Reagents. U20S Cells were Cultured in DMEM Containing 10% Fetal Calf serum supplemented with 50 units/ml penicillin and 50 μg/ml streptomycin. Inducible hTid-1L, hTid-1S, H121QL, and H121QS were expressed in U20S cells from a plasmid containing a muristerone-inducible promoter (Invitrogen). Inducible cells lines were cultured under constant selection with 50 μg/ml Zeocin (Invitrogen) and 300 μg/ml G418. Gene expression was induced with 1 μM muristerone (Invitrogen) for 24 hours. SAOS-2 cells were cultured in DMEM containing 15% fetal calf serum and 50 units/ml penicillin and 50 μg/ml streptomycin.
Apoptosis Assays. Inducible U2OS Cells were Induced with 1 μM Muristerone for 24 hours, or went uninduced and were treated with either the indicated concentration of mitomycin c (Sigma) for 24 hours or the indicated concentration of TNF plus 30 μg/ml cycloheximide. Cells were fixed by exposure to methanol vapor for 10 minutes followed by immersion in methanol for at least 10 minutes. Cells were stained with 1 μg/ml Hoechst 33258 and 0.1% lowfat milk (Carnation) for 7 minutes and rinsed in water. Apoptotic nuclei were counted by using fluorescence microscopy. For transient-transfection experiments, U2OS cells were transfected by the calcium phosphate technique by using BES-buffered saline. […] Cells expressing green fluorescent protein were counted and scored for apoptotic nuclei.

Interaction with mtHsp70 (coimmunoprecipitation) [2] | Molecule | Cytochrome c released from mitochondria relative to control cells [1] | Cleavage and activation of pro-caspase 3 relative to control cells [3] | Levels of apoptosis relative to control cells [4]
interact specifically | hTid-1L: 43 kDa mitochondrial matrix splice variant encoded by human TID1, SEQ ID NO: 8; proapoptotic (protein, listed as Homo sapiens) MAARCSTRWLLVVVGTPRLPAISGRGARPPREGVVGAWLSRKLSVPAFASSLTSCGPRALLTLRPGVSLTGTKHNPFICTASFHTSAPLAKEDYYQILGVPRNASQKEIKKAYYQLAKKYHPDTNKDDPKAKEKFSQLAEAYEVLSDEVKRKQYDAYGSAGFDPGASGSQHSYWKGGPTVDPEELFRKIFGEFSSSSFGDFQTVFDQPQEYFMELTFNQAAKGVNKEFTVNIMDTCERCNGKGNEPGTKVQHCHYCGGSGMETINTGPFVMRSTCRRCGGRGSIIISPCVVCRGAGQAKQKKRVMIPVPAGVEDGQTVRMPVGKREIFITFRVQKSPVFRRDGADIHSDLFISIAQALLGGTARAQGLYETINVTIPPGTQTDQKIRMGGKGIPRINSYGYGDHYIHIKIRVPKRLTSRQQSLILSYAEDETDVEGTVNGVTLTSSGGSTMDSSAGSKARREAGEDEEGFLSKLKKMFTS | more cytochrome c is released | more efficiently | markedly increased levels of apoptosis
interact specifically | hTid-1S: 40 kDa mitochondrial matrix splice variant encoded by human TID1, SEQ ID NO: 9; antiapoptotic (protein, listed as Homo sapiens) MAARCSTRWLLVVVGTPRLPAISGRGARPPREGVVGAWLSRKLSVPAFASSLTSCGPRALLTLRPGVSLTGTKHNPFICTASFHTSAPLAKEDYYQILGVPRNASQKEIKKAYYQLAKKYHPDTNKDDPKAKEKFSQLAEAYEVLSDEVKRKQYDAYGSAGFDPGASGSQHSYWKGGPTVDPEELFRKIFGEFSSSSFGDFQTVFDQPQEYFMELTFNQAAKGVNKEFTVNIMDTCERCNGKGNEPGTKVQHCHYCGGSGMETINTGPFVMRSTCRRCGGRGSIIISPCVVCRGAGQAKQKKRVMIPVPAGVEDGQTVRMPVGKREIFITFRVQKSPVFRRDGADIHSDLFISIAQALLGGTARAQGLYETINVTIPPGTQTDQKIRMGGKGIPRINSYGYGDHYIHIKIRVPKRLTSRQQSLILSYAEDETDVEGTVNGVTLTSSGKRSTGN | release less cytochrome c | decreased cleavage and activation | decreased levels of apoptosis
